In US20250011456A1, “ANTIBODIES AGAINST CD14 AND USES THEREOF” (Villanelle Life Science Inc, priority 2023, published 2025):
Where a chain is given by its changes, count along the chain named. “And” between values parts separate entries of the source, which are not always exact repeats. Identical values can stand only once.

Assays:
[1] = tested on: CD14 positive recurrent bladder cancer patient-derived xenograft (PDX); experiment: Anti-CD14 IgG1/IgG4 with or without cisplatin, tumor treatment in PDX mice (tumor length, width, volume, tumor weight; Example 6); type: in vivo; settings: for Tumor Length / Tumor Volume / Tumor Width: IgG4 5 mg/kg i.v. (Ex. 2), PDX mice 1-6
Description: After removing the primary tumor tissue from the patient, the tissue was temporarily placed in a complete culture medium containing RPMI1640 (Gibco Roswell Park Memorial Institute 1640 Media)+PS (penicillin and streptomycin)+10% FBS (Fetal bovine serum). The tissue was then transported to a sterile operating room within an SPF-grade (Specific Pathogen Free) animal facility. The tumor tissue was cut to an appropriate size (5 millimeters (mm) in diameter). Severely immunodeficient NSG (NOD scid gamma mouse) mice were anesthetized using an isoflurane respirator. The tumor was transplanted subcutaneously into the right rib area through surgery. When the tumor volume reached 1 cm^3, it was passaged following the same procedure, and after expanding for three generations, the tumor became stable for use in formal experiments. During the experiment, passaging and expansion were performed as needed. When the tumor volume reached 100 mm^3, the mice were divided into groups according to the experimental requirements and treated with drugs.
The IgG4 tested is the original version of Atibuclimab.
Drug administration on the PDX mice was performed intravenously.

[2] = target: T1, human CD14 antigen (B294801, histidine tagged) (Homo sapiens, UniProt P08571); experiment: Biacore 8K kinetic and affinity test of antibodies without PTM sites (Example 9); type: binding; settings: for Koff / kon (1:1 binding): Biacore 8K, analyte B294801 0.1953125-25 nM, capture conc. 1 μg/mL
T1 construct: His; purchased Shanghai BaiYing Biotechnology Co., Ltd B294801 (Batch number 20200518A22)
T1 sequence (P08571 20-345): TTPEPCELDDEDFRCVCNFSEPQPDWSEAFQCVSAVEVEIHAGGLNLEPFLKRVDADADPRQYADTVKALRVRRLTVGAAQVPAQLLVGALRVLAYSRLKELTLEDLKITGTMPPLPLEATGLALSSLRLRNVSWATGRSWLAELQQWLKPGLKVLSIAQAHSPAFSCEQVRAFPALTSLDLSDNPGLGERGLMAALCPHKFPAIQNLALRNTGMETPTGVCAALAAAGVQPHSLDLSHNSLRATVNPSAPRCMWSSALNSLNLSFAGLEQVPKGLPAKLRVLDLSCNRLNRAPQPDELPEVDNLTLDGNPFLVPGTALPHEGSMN
Protocol: Experimental reagents and consumables included cell culture fluid, electroporation buffer, CHO cells, 1 mL electroporation cuvette, Protein A chip (Cytiva, 29127556), various sizes of shake flasks, and various sizes of pipettes. Main instruments and equipment included a shaker (Taicang Huamei), centrifuge (Baiyang), ultrapure water system (Millipore), constant temperature incubator (BLUE PARD), electroporator, water bath, Biacore 8K (Cytiva), and ELISA system (Molecular Devices).
The antigen used for the binding affinity measurements is B294801. This antigen is a human CD14 antigen that is histidine tagged. D6DD3D001 is a mouse antibody, and MPDDAD001-MPDDAD005 are humanized antibodies. The antibodies are recombinant, human (hFc Tag). Selected parameters of the experimental samples are shown in Table 9-1, with MW referring to molecular weight in kDa.
The Biacore 8K platform was used to test the kinetic and affinity properties of the antibody, operating according to system instructions and indications.
Results of Affinity Detection. The affinity of the six antibodies was measured at saturation concentration. For the experiments, the analyte solution comprises the B294801 antigen with an analyte concentration of 0.1953125 nM, 0.390625 nM, 0.78125 nM, 1.5625 nM, 3.125 nM, 6.25 nM, 12.5 nM, and 25 nM. Change factor is described above.

B1: IgG4: The IgG4 tested is the original version of Atibuclimab (anti-CD14 antibody) (antibody, V domains shown)
VH: DVQLQQSGPGLVKPSQSLSLTCTVTGYSITSDSAWNWIRQFPGNRLEWMGYISYSGSTSYNPSLKSRISITRDTSKNQFFLQLNSVTTEDTATYYCVRGLRFAYWGQGTLVTVSS
VL: DIVLTQSPASLAVSLGQRATISCRASESVDSYVNSFLHWYQQKPGQPPKLLIYRASNLQSGIPARFSGSGSRTDFTLTINPVEADDVATYYCQQSNEDPYTFGGGTKLEIK
modifications: IgG4 constant regions
[1]; Day 0, 5 mg/kg
  Tumor Length: 6.27 mm and 8.76 mm and 6.59 mm and 7.42 mm and 6.33 mm and 6.02 mm
  Tumor Volume: 71.87 mm^3 and 99.55 mm^3 and 90.05 mm^3 and 93.23 mm^3 and 102.04 mm^3 and 77.19 mm^3
  Tumor Width: 4.68 mm and 4.66 mm and 5.11 mm and 4.9 mm and 5.55 mm and 4.95 mm
[1]; Day 4, 5 mg/kg
  Tumor Length: 6.09 mm and 6.4 mm and 7.29 mm and 6.97 mm and 6.34 mm and 6.38 mm
  Tumor Volume: 113.97 mm^3 and 113.45 mm^3 and 97.29 mm^3 and 124.83 mm^3 and 104.42 mm^3 and 77.89 mm^3
  Tumor Width: 5.98 mm and 5.82 mm and 5.05 mm and 5.85 mm and 5.61 mm and 4.83 mm
[1]; Day 7, 5 mg/kg
  Tumor Length: 7.28 mm and 7.86 mm and 8.67 mm and 6.99 mm and 8.27 mm
  Tumor Volume: 180.86 mm^3 and 117.78 mm^3 and 198.12 mm^3 and 140.77 mm^3 and 173.66 mm^3 and 136.21 mm^3
  Tumor Width: 6.89 mm and 5.56 mm and 6.94 mm and 5.57 mm and 5.61 mm
[1]; Day 11, 5 mg/kg
  Tumor Length: 8.11 mm and 8.29 mm and 6.98 mm and 8.22 mm and 7.53 mm and 8.23 mm
  Tumor Width: 5.81 mm and 7.35 mm and 5.72 mm and 8.04 mm and 7.15 mm and 7.08 mm
[1]; Day 14, 5 mg/kg
  Tumor Length: 8.23 mm and 8.98 mm and 8.47 mm and 7.26 mm and 9.3 mm and 9.49 mm
  Tumor Volume: 222.04 mm^3 and 307.58 mm^3 and 251.33 mm^3 and 190.45 mm^3 and 320.90 mm^3 and 371.60 mm^3
  Tumor Width: 7.18 mm and 8.09 mm and 7.53 mm and 7.08 mm and 8.12 mm and 8.65 mm
[1]; Day 18, 5 mg/kg
  Tumor Length: 8.68 mm and 10.39 mm and 9.13 mm and 9.05 mm and 9.45 mm and 9.95 mm
  Tumor Volume: 324.35 mm^3 and 536.16 mm^3 and 383.59 mm^3 and 344.61 mm^3 and 334.97 mm^3 and 363.06 mm^3
  Tumor Width: 8.45 mm and 9.93 mm and 8.96 mm and 8.53 mm and 8.23 mm and 8.35 mm
[1]; Day 21, 5 mg/kg
  Tumor Length: 10.54 mm and 10.95 mm and 9.73 mm and 10.89 mm and 10.09 mm and 10.17 mm
  Tumor Volume: 450.77 mm^3 and 632.99 mm^3 and 424.46 mm^3 and 505.72 mm^3 and 463.61 mm^3 and 487.44 mm^3
  Tumor Width: 9.04 mm and 10.51 mm and 9.13 mm and 9.42 mm and 9.37 mm and 9.57 mm
[1]; Day 25, 5 mg/kg
  Tumor Length: 12.37 mm and 11.71 mm and 10.99 mm and 12.36 mm and 12.63 mm
  Tumor Volume: 724.64 mm^3 and 746.92 mm^3 and 567.12 mm^3 and 525.64 mm^3 and 639.10 mm^3 and 698.50 mm^3
  Tumor Width: 10.58 mm and 11.04 mm and 9.93 mm and 9.56 mm and 9.94 mm and 10.28 mm
[1]; Day 28, 5 mg/kg
  Tumor Length: 11.25 mm and 11.92 mm and 12.46 mm and 12.52 mm and 12.24 mm and 12.94 mm
  Tumor Volume: 728.02 mm^3 and 719.55 mm^3 and 840.02 mm^3 and 932.53 mm^3 and 835.40 mm^3 and 919.10 mm^3
  Tumor Width: 11.12 mm and 10.74 mm and 11.35 mm and 11.93 mm and 11.42 mm and 11.65 mm
[1]; IgG4 (5 mg/kg), Ex. 2, per mouse 1-6, 5 mg/kg
  Tumor weight after 28 days: 0.779 grams and 0.769 grams and 0.739 grams and 0.863 grams and 0.852 grams and 0.649 grams
[1]; single anti-CD14-IgG4 5 mg/kg (Ex. 2), after 28 days
  tumor suppression rate: about 25%

B2: MPDDAD003: D6DD3D014-derived antibody with PTM site removed; VL amino acid nos. 34, 35: TS (antibody, V domains shown)
VH: QLQLQESGPGLVKPSETLSLTCTVSGGSISSDSAWNWIRQPPGKGLEWIGYISYSGSTSYNPSLKSRVTISRDTSKNQFSLKLSSVTAADTAVYYCVRGLRFAYWGQGTLVTVSS
VL: DIQLTQSPSSLSASVGDRVTITCRASESVDSYVTSFLHWYQQKPGKAPKLLIYRASNLQSGVPSRFSGSGSRTDFTLTISSLQPEDVATYYCQQSNEDPYTFGQGTKLEIK
[2]
  Koff: 0.0026 s⁻¹
  kon (1:1 binding): 1.29e+06 M⁻¹ s⁻¹
[2]; Biacore, B294801 antigen
  affinity compared with the humanized antibody D6DD3D014: approximately equivalent to the affinity of the humanized antibody D6DD3D014
  affinity compared with the murine antibody D6DD3D001: within three times less than the affinity of the murine antibody D6DD3D001

B3: MPDDAD004: D6DD3D014-derived antibody with PTM site removed; VL amino acid nos. 34, 35: NA (antibody, V domains shown)
VH: B2 VH
VL: B2 VL with T34N, S35A
[2]
  Koff: 0.0046 s⁻¹
  kon (1:1 binding): 775000 M⁻¹ s⁻¹

B4: MPDDAD005: D6DD3D014-derived antibody with PTM site removed; VL amino acid nos. 34, 35: QS (antibody, V domains shown)
VH: B2 VH
VL: B2 VL with T34Q
[2]
  Koff: 0.00544 s⁻¹
  kon (1:1 binding): 1.11e+06 M⁻¹ s⁻¹

B5: MPDDAD001: D6DD3D014-derived antibody with PTM site removed; VL amino acid nos. 34, 35: DS (antibody, V domains shown)
VH: B2 VH
VL: B2 VL with T34D
[2]
  Koff: 0.00633 s⁻¹
  kon (1:1 binding): 847000 M⁻¹ s⁻¹

B6: MPDDAD002: D6DD3D014-derived antibody with PTM site removed; VL amino acid nos. 34, 35: SS (antibody, V domains shown)
VH: B2 VH
VL: B2 VL with T34S
[2]
  Koff: 0.00362 s⁻¹
  kon (1:1 binding): 1.29e+06 M⁻¹ s⁻¹
